# From patent US20080305097A1, “Use of Protease or a Protease Inhibitor for the Manufacture of Medicaments” (YEDA RESEARCH AND DEVELOPMENT CO., LTD., priority 2004, published 2008)
# B1: G-CSF: granulocyte colony-stimulating factor (Filgrastin, Roche) (protein, UniProt P09919 31-207, looked up)
# Granulocyte …: TPLGPASSLPQSFLLKCLEQVRKIQGDGAALQEKLVSECATYKLCHPEELVLLGHSLGIPWAPLSSCPSQALQLAGCLSQLHSGLFLYQGLLQALEGISPELGPTLDTLQLDVADFATTIWQQMEELGMAPALQPTQGAMPAFASAFQRRAGGVLVASHLQSFLEVSYRVLRHLAQP
# modifications: filgrastim
# B2: RANKL: Receptor Activator of NK-kappaB Ligand, soluble murine, osteoclast differentiating factor (protein, UniProt O35235 70-316, looked up)
# extracellular domain: YFRAQMDPNRISEDSTHCFYRILRLHENADLQDSTLESEDTLPDSCRRMKQAFQGAVQKELQHIVGPQRFSGAPAMMEGSWLDVAQRGKPEAQPFAHLTINAASIPSGSHKVTLSSWYHDRGWAKISNMTLSNGKLRVNQDGFYYLYANICFRHHETSGSVPTDYLQLMVYVVKTSIKIPSSHNLMKGGSTKNWSGNSEFHFYSINVGGFFKLRAGEEISIQVSNPSLLDPDQDATYFGAFKVQDID
# modifications: extracellular domain
# B3: CTK: cathepsin K, lysosomal cysteine protease, the major osteoclast bone resorbing enzyme (protein, UniProt P43235 115-329, looked up)
# Cathepsin K: APDSVDYRKKGYVTPVKNQGQCGSCWAFSSVGALEGQLKKKTGKLLNLSPQNLVDCVSENDGCGGGYMTNAFQYVQKNRGIDSEDAYPYVGQEESCMYNPTGKAAKCRGYREIPEGNEKALKRAVARVGPVSVAIDASLTSFQFYSKGVYYDESCNSDNLNHAVLAVGYGIQKGNKHWIIKNSWGENWGNKGYILMARNKNNACGIANLASFPKM
# Assays:
# [1] = test system: TRAP+ multinucleated osteoclasts; assay: Osteoblast/BM co-culture, TRAP+ multinucleated osteoclast count; format: cell-based, mouse; settings: G-CSF 50 ng/ml, HGF 50 ng/ml, SDF-1 10 and 100 ng/ml; 5 days
# Description: Osteoclast precursors are stimulated by cell-cell contact with osteoblasts to become activated multinucleated TRAP+ bone resorbing cells. To obtain active osteoclasts in vitro, a clvarian osteoblasts are incubated with Vitamine D3 and PG2E which potentiate their M-CSF production and RANKL expression, needed for osteoclast activation. BM cells which contain osteoclast precursors are seeded then on the osteoblast monolayer, for 5 days, to obtain active multinucleated osteoclasts.
# A co-culture of primary mouse osteoblasts and BM (containing ocl precursors as detailed above) was seeded in the presence of G-CSF (50 ng/ml), HGF (50 ng/ml), or SDF-1 (10 and 100 ng/ml). Five days later, TRAP+ multinucleated osteoclasts in the cultures were stained (as described in Example 1) and counted 5 days later.
# [2] = test system: SDF-1; assay: SDF-1 transcription (RT-PCR) and secretion (ELISA) in primary calvaria osteoblasts; format: cell-based, mouse; settings: 50 ng/ml, 3 days
# Description: Osteoblast were incubated with G-CSF, HGF or remained untreated, and SDF-1 transcription and expression was determined in such cells (FIG. 9).
# Primary calvaria osteoblasts were cultured for 3 days in the presence of SDF-1 (PeproTech, 100 […]), HGF (PeproTech, 50 ng/ml) and G-CSF (Filgrastin, Roche, 50 ng/ml). Conditioned media was collected to determine SDF-1 concentration by ELISA, as described in Example 2. Determination of SDF-1 transcription and expression as in Example 2.
# [3] = test system: TRAP+ active osteoclasts; assay: In vivo osteoclast activation by RANKL, TRAP staining; design: species or system Balb/c mice; settings: RANKL 2 daily subcutaneous injections of 5 mcg for 3 days
# Description: (§1) Balb/c mice were injected with soluble murine RANKL (2 injections per day, 5 mcg per subcutaneous injection). Bones of treated mice were stained for TRAP (in red) indicating mature activated osteoclasts (A). Levels of MMP-9 in BM fluids were determined by zymography assay (B). The expression of CTK mRNA was detected by RT-PCR (C).
# (§2) Mice were administrated with RANKL as follows: 2 daily subcutaneous injections of 5 mcg for 3 days and after two more days in the absence of RANKL. The following parameters were monitored in both treated and control untreated mice: TRAP+ activated osteoclasts (FIG. 11A), induction of osteoclast proteases MMP-9 (FIG. 11B) and CTK (FIG. 11C) in the BM and mobilization (FIG. 12).
# [4] = test system: MMP-9; assay: MMP-9 in BM after RANKL, zymography; format: in vivo, Balb/c mice; settings: RANKL 2 daily subcutaneous injections of 5 mcg for 3 days
# Description: as §1, §2
# [5] = test system: CTK; assay: CTK expression in BM after RANKL, RT-PCR; format: in vivo, Balb/c mice; settings: RANKL 2 daily subcutaneous injections of 5 mcg for 3 days
# Description: as §1, §2
# [6] = test system: progenitors; assay: Progenitor mobilization by RANKL, semisolid cultures; format: in vivo, Balb/c mice; settings: RANKL 2 daily subcutaneous injections of 5 mcg for 3 days
# Description: (A) Progenitor mobilization assayed in semisolid cultures, induced by SDF-1 (10 mcg), HGF (1.5 mcg) injected for 5 days and sRANKL (2×5 mcg) injected for the first 3 days. (B) RANKL induced mobilization is inhibited by administration of anti CXCR4 antibodies (10 mcg) and MMP2/9 inhibitor (100 mcg), injected for the last 2 days. (C) Osteoclast precursors in the BM of treated mice were assayed by culturing BM cells for 4 days with M-CSF and sRANKL, followed by TRAP staining to detect mature active osteoclasts.
# as §2
# [7] = test system: SDF-1; assay: Migration of Pre B ALL G2 cells towards CTK treated SDF-1; format: cell-based; settings: SDF-1 125 ng, CTK 1 mcg/ml, about 16 hours, 37° C.
# Description: We employed an in-vitro functional assay for SDF-1 (Example 10) to check the effect of CTK on SDF-1 activity. The assay consisted on migration of leukemic Pre B ALL G2 (cells which migrate very well to relative low concentrations of SDF-1, Spiegel, Blood, 2004) to SDF-1.
# In brief, SDF-1 (125 ng) was incubated with CTK ([…]) in a 100 ul reaction volume adjusted with PBS, for about 16 hours in 37° C. In some samples, protease inhibitor (PI, 1 ul, Sigma, containing the cystein protease inhibitor E-64) was preincubated with CTK for 1.5 hrs, in 37° C., before SDF-1 was added. The leukemic Pre B ALL G2 cells were loaded on transwells and migration towards CTK treated as well as non treated SDF-1 was measured.
# 125 ng/ml SDF-1α was kept untreated or incubated with CTK (1 mcg/ml) for overnight in 37° C. To inhibit enzymatic activity of CTK, 1 and 2 mcl of protease inhibitor (Sigma) was incubated with CTK for 1.5 h before adding to SDF-1. RPMI (600 μl) supplemented with 10% FCS was added with tested SDF-1 to the lower chamber of a Costar 24-wells transwell (Corning (pore size 5 μm), NY). 1×10^5 pre B ALL G2 cells in 100 μl medium were loaded to the upper chamber and were allowed to migrate for 4 hours at 37° C. Migrating cells were collected from the lower chamber and counted for 60 seconds using a FACSCalibur. Control spontaneous migration was performed without SDF-1α in the lower chamber.
# [8] = test system: SDF-1; assay: SDF-1 cleavage by CTK, SDS-PAGE and blot with anti SDF-1 polyclonal Ab or K15C; format: biochemical; settings: SDF-1 20 ng, CTK 1.76 ug/ml
# Description: SDF-1 (20 ng) was incubated with CTK (1.76 ug/ml) for 0, 15, 30, and 60 minutes at 37OC. Samples were subjected than to SDS-PAGE, blotted and detected with anti SDF-1 polyclonal Ab or with the monoclonal Ab K15C, which specifically binds the amino terminal part of the chemokine.
# We further explored the kinetics of SDF-1 cleavage by CTK at a time scale of minutes (FIG. 14). Samples of SDF-1 (20 ng) were incubated with CTK (1.76 ug/ml) for 0, 15, 30, 60, 120 and 240 minutes at 37° C. After collection, the samples were subjected to SDS-PAGE and blotted and detected with anti SDF-1 polyclonal Ab (R&D) or with the monoclonal Ab K15C which specifically binds the amino terminal part of the chemokine.
molecule,measurement,setting,value
B1,level of activated TRAP+ osteoclasts,[1],significantly increased
same,SDF-1 transcription in osteoblasts,[2],induce
same,SDF-1 production in osteoblasts,[2]; conditioned media ELISA,induce
B2,formation of TRAP+ active osteoclasts,[3],induced formation of TRAP+ active osteoclasts along the endosteum
same,MMP-9 expression in the bone marrow,[4],induction
same,CTK expression in the bone marrow,[5],induction
same,mobilization of progenitors,[6],mobilization of progenitors
B3,chemotactic activity of SDF-1 after incubation with CTK,[7],abolished
same,kinetics of SDF-1 cleavage by CTK,"[8]; 0-240 minutes, 37° C.",fast and site specific SDF-1 cleavage
same,site of SDF-1 cleavage by CTK,[8]; detection with K15C (amino terminal part),N-terminally cleaved
